Results on 1 molecule are retold here after PMC2064109 (The Journal of Cell Biology, 2007).

In the assay the target is T1, His-tagged bacterially expressed MBP-POSH fusion protein (human, UniProt Q7Z6J0 1-888).
T1 sequence (looked up): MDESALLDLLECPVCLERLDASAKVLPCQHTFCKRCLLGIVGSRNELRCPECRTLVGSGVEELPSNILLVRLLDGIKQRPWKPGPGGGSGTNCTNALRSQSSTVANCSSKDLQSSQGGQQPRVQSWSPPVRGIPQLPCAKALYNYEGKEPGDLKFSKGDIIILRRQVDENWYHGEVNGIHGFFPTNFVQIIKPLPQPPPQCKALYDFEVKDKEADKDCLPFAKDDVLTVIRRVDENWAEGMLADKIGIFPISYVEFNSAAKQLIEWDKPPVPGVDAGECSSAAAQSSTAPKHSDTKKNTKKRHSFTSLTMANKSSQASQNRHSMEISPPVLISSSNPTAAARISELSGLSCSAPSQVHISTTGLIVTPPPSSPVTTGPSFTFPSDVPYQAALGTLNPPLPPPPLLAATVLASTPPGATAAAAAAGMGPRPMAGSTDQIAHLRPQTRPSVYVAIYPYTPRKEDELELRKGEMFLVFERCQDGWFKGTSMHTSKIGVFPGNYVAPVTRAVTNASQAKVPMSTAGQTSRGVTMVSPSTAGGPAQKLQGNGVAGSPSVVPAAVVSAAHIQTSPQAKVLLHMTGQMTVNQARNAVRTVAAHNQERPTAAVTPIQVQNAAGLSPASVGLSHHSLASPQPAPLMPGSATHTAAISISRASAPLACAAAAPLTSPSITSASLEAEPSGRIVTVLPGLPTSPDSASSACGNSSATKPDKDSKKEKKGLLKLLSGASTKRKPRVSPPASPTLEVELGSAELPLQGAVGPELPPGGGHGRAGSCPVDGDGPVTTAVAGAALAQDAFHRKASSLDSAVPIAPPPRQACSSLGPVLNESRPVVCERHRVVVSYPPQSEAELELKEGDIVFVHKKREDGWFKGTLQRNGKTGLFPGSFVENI
Briefly: co-IP.

B1: truncated Herp (tHerp; amino acids 1-272) with FLAG tag (domain or fragment, UniProt Q15011 1-272, looked up)
chain: MESETEPEPVTLLVKSPNQRHRDLELSGDRGWSVGHLKAHLSRVYPERPRPEDQRLIYSGKLLLDHQCLRDLLPKQEKRHVLHLVCNVKSPSKMPEINAKVAESTEEPAGSNRGQYPEDSSSDGLRQREVLRNLSSPGWENISRPEAAQQAFQGLGPGFSGYTPYGWLQLSWFQQIYARQYYMQYLAATAASGAFVPPPSAQEIPVVSAPAPAPIHNQFPAENQPANQNAAPQVVVNPGANQNLRMNAQGGPIVEEDDEINRDWLDWTYSAA
As for B1, the binding result is recorded as “binds”.
